In PMC8809517, “Cofactor-independent RNA editing by a synthetic S-type PPR protein”:

T1: GFP-9S library array, motif 4 ND N98T;D124R (synthetic construct, N98T;D124R)
T1 chain: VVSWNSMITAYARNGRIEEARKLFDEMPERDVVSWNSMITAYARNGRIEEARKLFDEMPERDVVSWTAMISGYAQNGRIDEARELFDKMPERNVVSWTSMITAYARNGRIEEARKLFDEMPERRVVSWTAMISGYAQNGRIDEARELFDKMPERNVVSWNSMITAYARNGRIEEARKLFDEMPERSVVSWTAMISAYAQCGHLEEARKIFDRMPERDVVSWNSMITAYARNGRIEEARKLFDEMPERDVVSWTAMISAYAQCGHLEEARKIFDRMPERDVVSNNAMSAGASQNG

T2: GFP-9S library array, motif 4 ND N98H (synthetic construct, N98H)
T2 chain: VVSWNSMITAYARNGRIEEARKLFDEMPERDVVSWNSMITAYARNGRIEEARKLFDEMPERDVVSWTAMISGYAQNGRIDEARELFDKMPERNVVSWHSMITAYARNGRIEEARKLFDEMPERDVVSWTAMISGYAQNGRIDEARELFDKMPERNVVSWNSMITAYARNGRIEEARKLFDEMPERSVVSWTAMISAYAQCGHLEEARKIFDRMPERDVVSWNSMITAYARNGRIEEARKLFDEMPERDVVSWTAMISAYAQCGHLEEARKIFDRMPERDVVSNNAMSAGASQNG

T3: GFP-9S library array, motif 4 ND N98I;D124E (synthetic construct, N98I;D124E)
T3 chain: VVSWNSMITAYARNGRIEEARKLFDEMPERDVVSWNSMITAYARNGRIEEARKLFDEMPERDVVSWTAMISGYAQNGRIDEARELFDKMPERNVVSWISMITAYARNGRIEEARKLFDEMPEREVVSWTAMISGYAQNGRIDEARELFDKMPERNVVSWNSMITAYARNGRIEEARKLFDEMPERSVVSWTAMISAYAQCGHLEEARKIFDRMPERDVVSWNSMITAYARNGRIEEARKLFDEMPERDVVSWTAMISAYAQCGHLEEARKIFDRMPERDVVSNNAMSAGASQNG

T4: GFP-9S library array, motif 4 ND N98A;D124P (synthetic construct, N98A;D124P)
T4 chain: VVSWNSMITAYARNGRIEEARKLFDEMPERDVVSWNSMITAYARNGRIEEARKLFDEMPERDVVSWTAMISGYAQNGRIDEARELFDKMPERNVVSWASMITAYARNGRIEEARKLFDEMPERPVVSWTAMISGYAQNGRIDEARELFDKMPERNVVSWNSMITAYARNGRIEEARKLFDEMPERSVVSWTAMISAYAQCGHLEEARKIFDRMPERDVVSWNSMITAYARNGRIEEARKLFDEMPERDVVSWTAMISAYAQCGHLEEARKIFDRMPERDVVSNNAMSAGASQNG

T5: GFP-9S library array, motif 4 ND N98R;D124W (synthetic construct, N98R;D124W)
T5 chain: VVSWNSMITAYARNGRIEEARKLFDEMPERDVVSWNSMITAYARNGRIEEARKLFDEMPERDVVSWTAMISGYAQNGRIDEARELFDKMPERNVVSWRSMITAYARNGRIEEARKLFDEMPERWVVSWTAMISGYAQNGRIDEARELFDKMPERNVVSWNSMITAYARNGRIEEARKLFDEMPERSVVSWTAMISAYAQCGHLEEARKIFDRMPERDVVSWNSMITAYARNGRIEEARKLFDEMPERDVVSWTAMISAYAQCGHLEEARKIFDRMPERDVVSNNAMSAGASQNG


Experiments:
Assay in all cases: high-throughput RNA pulldown from lysate on Ni-NTA beads; HRP: 50 mM Tris pH 8, 150 mM NaCl, 1 mM beta-mercaptoethanol, 50 ug/ml BSA, 3 ug/ml yeast RNA, 0.5% heparin; ITC and FP: Tris pH 8, 200 mM KCl, 5% glycerol; MST: 50 mM Tris pH 8, 200 mM NaCl, 1 mM DTT, BSA, heparin, 0.05% Tween 20
Conditions in all cases: tags: N-terminal His-eGFP
[1] = target: T1, GFP-9S library array, motif 4 ND …
[2] = target: T2, GFP-9S library array, motif 4 ND N98H
[3] = target: T3, GFP-9S library array, motif 4 ND …
[4] = target: T4, GFP-9S library array, motif 4 ND …
[5] = target: T5, GFP-9S library array, motif 4 ND …

Binder | Kd ([1]; label: 5' Cy5) [nM] | Kd ([2]; label: 5' Cy5) [nM] | Kd ([3]; label: 5' Cy5) [nM] | Kd ([4]; label: 5' Cy5) [nM] | Kd ([5]; label: 5' Cy5) [nM] | Kd ([1]; label: 5' IRDye 800CW) [nM] | Kd ([2]; label: 5' IRDye 800CW) [nM] | Kd ([3]; label: 5' IRDye 800CW) [nM] | Kd ([4]; label: 5' IRDye 800CW) [nM] | Kd ([5]; label: 5' IRDye 800CW) [nM]
AUUACACGUGA (ssRNA) [Cy5-rpoA] | 132 | 144 | 97.2 | 138 | 147 | – | – | – | – | –
AUUAGACGUGA (ssRNA) [Cy5-rpoA-G] | 120 | 26.5 | 78.6 | 115 | 88.7 | – | – | – | – | –
AUUAAACGUGA (ssRNA) [IR-rpoA-A] | – | – | – | – | – | 80.8 | 465 | 48.6 | 218 | 249
AUUAUACGUGA (ssRNA) [IR-rpoA-U] | – | – | – | – | – | 133 | 65.7 | 43.1 | 320 | 337
